Assay results reported in patent publication US20200353078A1 (AstraZeneca / MedImmune, published 2020).
Residue numbers refer to the chain shown, from its start.

B1: 33_640082-7 IgG1 (antibody, V domains shown)
VH: EVQLLESGGGLVQPGGSLRLSCAASGFTFSSYAMSWVRQAPGKGLEWVSGISAIDQSTYYADSVKGRFTISRDNSKNTLYLQMNSLRAEDTAVYYCARQKFMQLWGGGLRYPFGYWGQGTMVTVSS
VL: SYVLTQPPSVSVSPGQTASITCSGERMGDKYAAWYQQKPGQSPVLVIYRDTKRPSGIPERFSGSNSGNTATLTISGTQAMDEADYYCGVLKQDTGVFGGGTKVTVL
notes: IgG1
B2: 33_640076-4 IgG1 (antibody, V domains shown)
VH: B1 VH with Q99D, K100L, F101W, Q103E, L104N, G106V
VL: B1 VL with G88E, L90K, Q92S
notes: IgG1
B3: 33_640201 IgG1 (antibody, V domains shown)
VH: B1 VH with G50S, S52D, D55S, Q56S, A97S
VL: B1 VL with R49Q, M80V
notes: IgG1; also called ZZ1JMY-H09
B4: 33_640086-6 IgG1 (antibody, V domains shown)
VH: B1 VH with A53G, Q56T, Q99D
VL: B1 VL with G88E, L90K, K91V, Q92K
notes: IgG1
B5: 33_640084-2 IgG1 (antibody, V domains shown)
VH: B1 VH with T28A, G50A, A53G, I54S, D55G, Q56G
VL: B1 VL with G88Q, L90W, K91R, Q92D, T94S, G95P, V96I
notes: IgG1

Tests used:
[1] = target: T1, Full-length human IL-33 (amino acids 1-270), HEK293-EBNA cell lysate (human, UniProt O95760 1-270); assay: cell-based or functional assay
T1 sequence (looked up): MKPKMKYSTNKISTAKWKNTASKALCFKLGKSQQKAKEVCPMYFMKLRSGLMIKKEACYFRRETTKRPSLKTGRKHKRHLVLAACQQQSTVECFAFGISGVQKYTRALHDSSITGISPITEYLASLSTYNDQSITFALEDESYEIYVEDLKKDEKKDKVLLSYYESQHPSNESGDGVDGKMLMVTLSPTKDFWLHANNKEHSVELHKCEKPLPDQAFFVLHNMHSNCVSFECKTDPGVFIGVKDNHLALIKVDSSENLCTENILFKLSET

His10/Avi Human IL33-01 [2] = target: T2, His10/Avi Human IL33-01 (human); assay: cell-based or functional assay
T2 chain: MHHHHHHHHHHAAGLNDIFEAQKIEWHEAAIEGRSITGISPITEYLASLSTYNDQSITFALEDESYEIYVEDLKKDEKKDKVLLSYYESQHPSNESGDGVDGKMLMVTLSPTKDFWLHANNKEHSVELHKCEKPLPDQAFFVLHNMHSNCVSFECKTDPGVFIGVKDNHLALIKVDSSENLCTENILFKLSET

His10/Avi Human IL33-01 [3] = target: T2, His10/Avi Human IL33-01; assay: HTRF epitope competition, IgG titrated; competitor DyLight labelled 33_640117 IgG; overnight
Protocol: (§1) As the epitope competition assay utilising 33_640027 reached its limit of sensitivity, an assay using 33_640117 was used for testing purified scFv samples. The assay was essentially as described for the 33v20064 competition assay with the following modifications: 2.5 nM DyLight labelled 33_640117 was prepared and 2.5 microlitres added to the assay plates. This was followed by the addition of 2.5 microlitres of a solution containing 0.12 nM biotinylated human IL-33-01 combined with 0.75 nM streptavidin cryptate detection (Cisbio International, 610SAKLB) for the human assay or a solution containing 0.24 nM biotinylated cynomolgus IL-33 combined with 1.5 nM streptavidin cryptate detection (Cisbio International, 610SAKLB) for the cynomolgus assay. Fluorescence was read after one hour and overnight incubation.
(§2) The ability of anti-IL-33 antibodies to inhibit the binding of biotinylated His Avi human IL-33 or cynomolgus His Avi IL-33 to the DyLight labelled 33_640117 IgG was assessed in a biochemical HTRF® (Homogeneous Time-Resolved Fluorescence, Cisbio International) competition assays as described above.

His10/Avi Cyno IL-33 = target: T3, His10/Avi Cyno IL-33 (cynomolgus monkey); assay: HTRF epitope competition, IgG titrated; competitor DyLight labelled 33_640117 IgG; 1 hour
T3 construct: also called Cynomolgus 10His Avitag IL-33; biotinylated His Avi cynomolgus IL-33
T3 chain: T2 chain with E77K, N94S, H118Q, M146R, H147S, S148F, S177Y, C182G, T183S, T193I
Protocol: as §1, §2

His10/Avi Human IL33-01 [4] = target: T2, His10/Avi Human IL33-01; assay: as above
Protocol: as §1, §2

Binder	IC50, Huvec IL-8 assay vs. full length IL-33 cell lysate [1] [nM]	IC50, Huvec IL-8 assay vs. His Avi IL-33 (His10/Avi Human IL33-01 [2]) [nM]	IC50 (His10/Avi Human IL33-01 [3]) [nM]	IC50 (His10/Avi Cyno IL-33) [nM]	IC50 (His10/Avi Human IL33-01 [4]) [nM]
B1	0.095	0.031	0.1	0.2	0.1
B2	0.095	0.032	0.1	0.6	0.1
B3	0.101	0.046	0.2	0.3	0.2
B4	0.081	0.026	0.1	0.2	0.1
B5	0.132	0.036	0.3	0.8	0.3
